Target: T1, PcrV (130–263) (Pseudomonas aeruginosa, UniProt G3XD49)
T1 construct: PcrV, type III secretion system needle-tip protein of Pseudomonas aeruginosa, residues 130Ala-263Asn; also called recombinant PcrV (130–263); partial PcrV (130–263); source: E. coli, purified (Profinity eXact Fusion-Tag system, Superdex75)
Assay: crystal structure; h1F3 Fab and PcrV (130-263) mixed at a molar ratio of 1:2 in TBS with 0.5 mM TCEP at 4°C overnight, equimolar complex separated by Superdex200; crystals by sitting drop in 0.1 M acetate-Na pH 5.6, 24% PEG3350, 0.125 M CaCl2 at 20°C
Settings: both partners purified

B1: h1F3 Fab (Fab, V domains shown)
VH: QVQLVQSGAEVKKPGASVKVSCKASGYSFTSYWMHWVRQAPGQGLEWMGEINPSNGRTNYNEKFNTRVTMTRDTSTSTVYMELSSLRSEDTAVYYCVLYGNYVVYYTMDYWGQGTTVTVSS
VL: DIQLTQSPSFLSASVGDRVTITCSASTSVSYMEWYQQKPGKAPKLLIYTTSKLASGVPSRFSGSGSGTEFTLTISSLQPEDFATYYCHQWRNYPFTFGQGTKLEIK
notes: Fab part of the heavy chain of h1F3 (humanized from mouse m1F3 by CDR grafting with H93 and H94 back-mutation, human IgG4Pro format); light chain of h1F3 (has the mouse residue Ala at L128); also called Fab fragment of h1F3; pre-optimized COT-143 (Fab); source: papain digestion of h1F3, purified (HiTrap Protein A flow-through, Mono S, Superdex200)
binding result: binds
